# From FireProtDB (doi:10.1016/j.bpc.2007.01.002)
# Details: Equus caballus, Thermal, reversible: Yes
# [1] = pH 3.8, DSC, Sodium acetate 50 mM, transition: 3
# [2] = pH 4.1, DSC, Sodium acetate 50 mM
# [3] = pH 4.1, DSC, Sodium acetate 50 mM, transition: 3
# [4] = pH 4.5, DSC, Sodium acetate 50 mM
# [5] = pH 5, DSC, Sodium acetate 50 mM
# [6] = pH 5, DSC, Sodium acetate 50 mM, transition: 3
# Sequence of Cytochrome c wild type, P00004 (P00004 whole entry): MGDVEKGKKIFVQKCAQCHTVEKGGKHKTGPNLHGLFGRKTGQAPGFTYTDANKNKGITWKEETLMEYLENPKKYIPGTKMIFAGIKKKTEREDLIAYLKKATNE
substance,measurement,setting,value
"Cytochrome c wild type, P00004",Tm,"pH 2.9, IATC, KCl 20 mM",40 °C
same,unfolding enthalpy (calorimetric),"pH 2.9, IATC, KCl 20 mM",68.8 kcal/mol
same,Tm,[1],68 °C
same,unfolding enthalpy (calorimetric),[1],33.7 kcal/mol
same,Tm,[2],70 °C
same,heat capacity change of unfolding,[2],1.34 kcal/mol/K
same,unfolding enthalpy (calorimetric),[2],112 kcal/mol
same,Tm,[3],69 °C
same,unfolding enthalpy (calorimetric),[3],33.7 kcal/mol
same,Tm,[4],74.1 °C
same,heat capacity change of unfolding,[4],1.51 kcal/mol/K
same,unfolding enthalpy (calorimetric),[4],119 kcal/mol
same,Tm,[5],76.2 °C
same,heat capacity change of unfolding,[5],1.39 kcal/mol/K
same,unfolding enthalpy (calorimetric),[5],124 kcal/mol
same,Tm,[6],73 °C
same,unfolding enthalpy (calorimetric),[6],37.5 kcal/mol
